Measurements taken from patent US20200299675A1 (UNIVERSITY OF ROCHESTER, published 2020).

Biological target: T1, streptavidin (Streptomyces avidinii, UniProt P22629 37-163)
T1 construct: also called streptavidin-coated beads; streptavidin-coated magnetic beads
Assay: direct binding assay with plate-immobilized streptavidin and HRP-conjugated anti-FLAG antibody
Description: For the Keap1 binding assay, Keap1 was immobilized on microtiter plates by incubating 100 μL of a 4 μM protein solution in PBS buffer overnight at 4° C., followed by washing (3×150 μL of PBS with 0.5% Tween-20) and blocking with 0.5% bovine serum albumin in PBS for 1.5 h at room temperature. After washing, each well was incubated with 100 μL of purified FLAG-tagged peptide at varying concentrations for 1 hour at room temperature. After washing three times with wash buffer, each well was incubated with 100 μL of 1:2500 dilution of HRP-conjugate mouse anti-FLAG polyclonal antibody (Sigma-Aldrich) for 1 hour at room temperature. After three washing step with wash buffer, 100 μL of 2.2 mM o-phenylenediamine dihydrochloride, 4.2 mM urea hydrogen peroxide, 100 mM dibasic sodium phosphate, and 50 mM sodium citrate, pH 5.0, were added to each well, followed by measurement of the absorbance at 450 nm after 10-20 min using a Tecan Infinite 1000 plate reader. Equilibrium dissociation constants (KD) were determined by fitting the dose-response curves to a 1:1 binding isotherm equation via nonlinear regression using SigmaPlot. Mean values and standard deviations were calculated from experiments performed in triplicate.

T1 sequence (P22629 37-163, tags left off): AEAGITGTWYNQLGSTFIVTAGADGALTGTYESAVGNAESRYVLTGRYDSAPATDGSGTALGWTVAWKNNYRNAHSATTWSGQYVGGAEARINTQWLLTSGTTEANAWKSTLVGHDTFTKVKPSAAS

binding result: no binding
B1: CBD alone (other)
chain: MKIEEGKLTNPGVSAWQVNTAYTAGQLVTYNGKTYKCLQPHTSLAGWEPSNVPALWQLQNNGNNGLELRHG
